The values below are quoted from earlier work in PMC3889014.

This data set addresses Cys145 (UniProt position 145, PILIPCHRVVC).

For the substance “O6-alkylguanine DNA-alkyltransferase (AGT; MGMT) (Homo sapiens (inferred; not stated in the sentence with the pKa))”, the pKa was 4–5.
